Experimental findings from patent US20210139569A1 (STRESSMARQ BIOSCIENCES, published 2021) are described below.

Test [1] has as its target α-synuclein peptide AA 81-110, BSA conjugate (human, N-terminus conjugated to a C-6 spacer (Ahx), which is conjugated to an N-terminal cysteine; conjugated to BSA). Kind of test: ELISA on BSA-conjugated peptide (FIG. 10). (In general: ELISA stands for enzyme-linked immunosorbent assay.)
Protocol: (§1) ELISA conditions for epitope mapping: Nunc® MaxiSorp™ 98 well plates ELISA plates were coated with peptide conjugated to BSA at 0.1 μg/well in 100 μl/well CCB (pH 9.6) overnight at 4° C. The plates were then blocked with 3% skim milk powder in PBS for 3 hours at room temperature. 100 μL/well antibody (1 μg/mL) was added and incubated for 1 hour at 37° C. Secondary Antibody 1:10,000 Goat anti-mouse IgG/IgM (H+L)-HRP at 100 uL/well in PBS-Tween for 1 hour at room temperature. All washing steps performed for 30 mins with PBS-Tween. […] Development time: 15 minutes. Plates were read at 450 nm.
In test [2] the target is T1, α-synuclein peptide AA 41-70, BSA conjugate (human, N-terminus conjugated to a C-6 spacer (Ahx), which is conjugated to an N-terminal cysteine; conjugated to BSA).
T1 construct: also called 41-70aa
Briefly: ELISA on BSA-conjugated peptide (FIG. 10).
Protocol: as §1

Test [3] concerns the target T2, α-synuclein peptide AA 1-30, BSA conjugate (human, N-terminus conjugated to a C-6 spacer (Ahx), which is conjugated to an N-terminal cysteine; conjugated to BSA).
T2 construct: also called 1-30aa
Briefly: ELISA on BSA-conjugated peptide (FIG. 10).
Protocol: as §1

For test [4], the target named is T3, α-synuclein peptide AA 21-50, BSA conjugate (human, N-terminus conjugated to a C-6 spacer (Ahx), which is conjugated to an N-terminal cysteine; conjugated to BSA).
T3 construct: also called 21-50aa
Kind of test: ELISA on BSA-conjugated peptide (FIG. 10).
Protocol: as §1

Test [5] deals with α-synuclein peptide AA 121-140, BSA conjugate (human, N-terminus conjugated to a C-6 spacer (Ahx), which is conjugated to an N-terminal cysteine; conjugated to BSA). Briefly: ELISA on BSA-conjugated peptide (FIG. 10).
Protocol: as §1
Test [6] addresses α-synuclein peptide AA 101-130, BSA conjugate (human, N-terminus conjugated to a C-6 spacer (Ahx), which is conjugated to an N-terminal cysteine; conjugated to BSA). Kind of test: binding to overlapping peptides (FIG. 10).
Protocol: as §1

Chain of α-synuclein peptide AA 101-130, BSA conjugate (human, N-terminus conjugated to a C-6 spacer (Ahx), which is conjugated to an N-terminal cysteine; conjugated to BSA) (peptide, as listed by the source): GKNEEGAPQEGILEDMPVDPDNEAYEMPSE
Chain of α-synuclein peptide AA 81-110, BSA conjugate (human, N-terminus conjugated to a C-6 spacer (Ahx), which is conjugated to an N-terminal cysteine; conjugated to BSA) (peptide, as listed by the source): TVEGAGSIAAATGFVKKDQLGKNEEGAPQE

B1: monoclonal antibody 2F11 (hybridoma ATCC #PTA-124174) (antibody, V domains shown)
VH: EVQLQQSGAELVRSGASVKLSCTASGFNIKDYYMFWVKQRPEQGLEWIGWNDPENGDTEYAPKFQGKATMTADTSSNTAYLQLSSLTSEDTAVYYCNAWDGNYVMDYWGQGTSVTVSS
VL: QIVLTQSPAIMSASLGERVTMTCTASSSVSSSYLHWYQQKPGSSPKLWIYSTSNLASGVPPRFSGSGSGTSYSLTISSMEAEDAATYYCHQYHRSPPMYTFGGGTKLE
notes: Mouse monoclonal, IgG1 kappa; Used as hybridoma supernatant or Protein G purified; with gold-labelled detection for electron microscopy; also called clone 2F11; 2F11 antibody
B1: the binding result in test [1] is reported as “no binding (tested: 1 µg/mL antibody)”; in test [2], “no binding (tested: 1 µg/mL antibody)”; in test [3] it was “no binding (tested: 1 µg/mL antibody)”; in test [4], “no binding (tested: 1 µg/mL antibody)”; in test [5], “no binding (tested: 1 µg/mL antibody)”; in test [6] it was “binds”.
